94 variants from the supplement of paper PMC10567573 can be followed below.

B1: TCAP (parent)
chain: YQRVLPLPIFTPAKMGATKEERED
B2: DCAF4 (parent)
chain: DSHILLCLMGLAETPGCATLLPAS
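Further: lentivirally expressed fusions sorted by FACS into six bins by GFP to DsRed ratio, PSI derived from sequencing read proportions per bin multiplied by bin number.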

In the first data set the parent is B1. The experiment in a line: protein stability index of a GFP-peptide fusion (GPS, HEK-293T) (PSI 1-6); higher = more stable. The note with it: c terminus: a fixed tail appended.
Regarding YQRVLPLPIFTPAKMGATKEERRD, the protein stability index was found to be 1.92. On to YQRVLPLPIFTPAKMGATKEERPD, for which the protein stability index is 1.95. With YQRVLPLPIFTPAKMGATKEERND, the protein stability index turned out to be 1.8. For the variant YQRVLPLPIFTPAKMGATKEERMD, the protein stability index stood at 1.9. On to YQRVLPLPIFTPAKMGATKEERLD, for which the protein stability index came out at 2.22. Turning to YQRVLPLPIFTPAKMGATKEERVD, the protein stability index stood at 2.79.

Regarding YQRVLPLPIFTPAKMGATKEERYD, the protein stability index came out at 1.93. As to YQRVLPLPIFTPAKMGATKEERTD, the protein stability index came out at 2.16.

Turning to YQRVLPLPIFTPAKMGATKEERWD, the protein stability index amounted to 2.53. As for YQRVLPLPIFTPAKMGATKEERQD, the protein stability index turned out to be 1.69. For YQRVLPLPIFTPAKMGATKEERSD, the protein stability index is 2.

Turning to YQRVLPLPIFTPAKMGATKEEREL, the protein stability index turned out to be 2.04. On the same count and under the same terms, the figure for YQRVLPLPIFTPAKMGATKEEREM is 1.86. As to YQRVLPLPIFTPAKMGATKEEREY, the protein stability index was found to be 1.76.

With YQRVLPLPIFTPAKMGATKEERET, the protein stability index amounted to 3.05. With YQRVLPLPIFTPAKMGATKEERES, the protein stability index is 1.45.

Consider YQRVLPLPIFTPAKMGATKEEREH, for which the protein stability index is 1.81. As to YQRVLPLPIFTPAKMGATKEEREK, the protein stability index was 2.17.

YQRVLPLPIFTPAKMGATKEEREI: the protein stability index was 1.99.

Consider YQRVLPLPIFTPAKMGATKEERER, for which the protein stability index turned out to be 1.55. In the case of YQRVLPLPIFTPAKMGATKEEREW, the protein stability index stood at 2.26. In the case of YQRVLPLPIFTPAKMGATKEEREP, the protein stability index was 1.85. Regarding YQRVLPLPIFTPAKMGATKEEREQ, the protein stability index was determined as 2.03. For the variant YQRVLPLPIFTPAKMGATKEEREV, the protein stability index is 1.87. With YQRVLPLPIFTPAKMGATKEEREG, the protein stability index was 1.84.

With YQRVLPLPIFTPAKMGATKEEREF, the protein stability index came to 1.75. For the variant YQRVLPLPIFTPAKMGATKEEREE, the protein stability index came out at 2.21. On to YQRVLPLPIFTPAKMGATKEEREC, for which the protein stability index was determined as 1.98.

With YQRVLPLPIFTPAKMGATKEEREN, the protein stability index is 2.22.

In the case of YQRVLPLPIFTPAKMGATKEEREA, the protein stability index worked out at 1.82.

Variants of B2 are the subject of a further data set. The description is as above. The note with it: c terminus: a fixed tail appended.
Regarding ASHILLCLMGLAETPGCATLLPAS, the protein stability index is 2.99. Turning to CSHILLCLMGLAETPGCATLLPAS, the protein stability index turned out to be 3.49. For the variant TSHILLCLMGLAETPGCATLLPAS, the protein stability index amounted to 2.58. On the same count and under the same terms, the figure for HSHILLCLMGLAETPGCATLLPAS is 2.19; for SSHILLCLMGLAETPGCATLLPAS it is 3.75. Regarding ESHILLCLMGLAETPGCATLLPAS, the protein stability index was 2.55. As for RSHILLCLMGLAETPGCATLLPAS, the protein stability index amounted to 4.01. Take ISHILLCLMGLAETPGCATLLPAS: the protein stability index was 2.64. In the case of QSHILLCLMGLAETPGCATLLPAS, the protein stability index worked out at 2.87. GSHILLCLMGLAETPGCATLLPAS: the protein stability index turned out to be 3.42. For LSHILLCLMGLAETPGCATLLPAS, the protein stability index came to 3.08. On the same count and under the same terms, the figure for VSHILLCLMGLAETPGCATLLPAS is 3.42; for KSHILLCLMGLAETPGCATLLPAS it is 2.07; for YSHILLCLMGLAETPGCATLLPAS it is 1.7.

Regarding WSHILLCLMGLAETPGCATLLPAS, the protein stability index worked out at 3.42. The same measure, in the same setting: the figure for MSHILLCLMGLAETPGCATLLPAS is 2.4; for DSHILLCLTGLAETPGCATLLPAS it is 1.98; for DSHILLCLQGLAETPGCATLLPAS it is 2.26. Take DSHILLCLIGLAETPGCATLLPAS: the protein stability index came to 2.6. Same read-out and setting: the figure for DSHILLCLCGLAETPGCATLLPAS is 1.71. With DSHILLCLWGLAETPGCATLLPAS, the protein stability index turned out to be 4.64. DSHILLCLEGLAETPGCATLLPAS: the protein stability index worked out at 2.02.

Turning to DSHILLCLKGLAETPGCATLLPAS, the protein stability index came to 1.42. For the variant DSHILLCLPGLAETPGCATLLPAS, the protein stability index turned out to be 2.12. On to DSHILLCLGGLAETPGCATLLPAS, for which the protein stability index amounted to 1.7. For DSHILLCLAGLAETPGCATLLPAS, the protein stability index turned out to be 2.83. Consider DSHILLCLVGLAETPGCATLLPAS, for which the protein stability index turned out to be 2.83. Same read-out and setting: the figure for DSHILLCLRGLAETPGCATLLPAS is 1.82; for DSHILLCLDGLAETPGCATLLPAS it is 1.92; for DSHILLCLYGLAETPGCATLLPAS it is 3.06. Regarding DSHILLCLHGLAETPGCATLLPAS, the protein stability index stood at 2.14. Regarding DSHILLCLLGLAETPGCATLLPAS, the protein stability index was determined as 4.92. On the same count and under the same terms, the figure for DSHILLCLNGLAETPGCATLLPAS is 1.6. On to DSHILLCLSGLAETPGCATLLPAS, for which the protein stability index amounted to 1.67. As for DSHILLCLMDLAETPGCATLLPAS, the protein stability index was found to be 2.89. With DSHILLCLMCLAETPGCATLLPAS, the protein stability index amounted to 3.17. For DSHILLCLMALAETPGCATLLPAS, the protein stability index is 1.84. As for DSHILDCLMGLAETPGCATLLPAS, the protein stability index turned out to be 2.22. Same read-out and setting: the figure for DSHILPCLMGLAETPGCATLLPAS is 2.74. As to DSHILECLMGLAETPGCATLLPAS, the protein stability index stood at 2.01. On the same count and under the same terms, the figure for DSHILCCLMGLAETPGCATLLPAS is 3.71. On the same count and under the same terms, the figure for DSHILKCLMGLAETPGCATLLPAS is 2.19; for DSHILWCLMGLAETPGCATLLPAS it is 4.4; for DSHILACLMGLAETPGCATLLPAS it is 1.87. For the variant DSHILGCLMGLAETPGCATLLPAS, the protein stability index amounted to 1.87.

For DSHILNCLMGLAETPGCATLLPAS, the protein stability index came to 1.75. For the variant DSHILHCLMGLAETPGCATLLPAS, the protein stability index worked out at 1.9. In the case of DSHILFCLMGLAETPGCATLLPAS, the protein stability index stood at 2.68. DSHILVCLMGLAETPGCATLLPAS: the protein stability index came out at 1.37.

Take DSHILICLMGLAETPGCATLLPAS: the protein stability index was found to be 2.56. For DSHILYCLMGLAETPGCATLLPAS, the protein stability index turned out to be 2.86. Turning to DSHILRCLMGLAETPGCATLLPAS, the protein stability index was 2.98. For DSHILQCLMGLAETPGCATLLPAS, the protein stability index stood at 1.81.

As for DSHILMCLMGLAETPGCATLLPAS, the protein stability index came out at 2.02. With DSHILSCLMGLAETPGCATLLPAS, the protein stability index is 1.53.

On to DSHILTCLMGLAETPGCATLLPAS, for which the protein stability index was found to be 1.5.

For DDHILLCLMGLAETPGCATLLPAS, the protein stability index was determined as 2.64. Regarding DVHILLCLMGLAETPGCATLLPAS, the protein stability index was 3.74. With DPHILLCLMGLAETPGCATLLPAS, the protein stability index is 2.04.

As to DWHILLCLMGLAETPGCATLLPAS, the protein stability index amounted to 2.68.

For DFHILLCLMGLAETPGCATLLPAS, the protein stability index was found to be 3.1. With DKHILLCLMGLAETPGCATLLPAS, the protein stability index is 2.03. Take DGHILLCLMGLAETPGCATLLPAS: the protein stability index amounted to 3.25. Take DMHILLCLMGLAETPGCATLLPAS: the protein stability index was 2.31.
